From US20240287172A1 (SCIRHOM, published 2024)

Key:
Assay in all cases: FACS on MEF-DKO cells
[1] = molecular target: T1, hiR2-FL-M534-T7 (deletion of M534) (human, UniProt Q6PJF5 1-856)
T1 construct: single amino acid deletion
T1 sequence: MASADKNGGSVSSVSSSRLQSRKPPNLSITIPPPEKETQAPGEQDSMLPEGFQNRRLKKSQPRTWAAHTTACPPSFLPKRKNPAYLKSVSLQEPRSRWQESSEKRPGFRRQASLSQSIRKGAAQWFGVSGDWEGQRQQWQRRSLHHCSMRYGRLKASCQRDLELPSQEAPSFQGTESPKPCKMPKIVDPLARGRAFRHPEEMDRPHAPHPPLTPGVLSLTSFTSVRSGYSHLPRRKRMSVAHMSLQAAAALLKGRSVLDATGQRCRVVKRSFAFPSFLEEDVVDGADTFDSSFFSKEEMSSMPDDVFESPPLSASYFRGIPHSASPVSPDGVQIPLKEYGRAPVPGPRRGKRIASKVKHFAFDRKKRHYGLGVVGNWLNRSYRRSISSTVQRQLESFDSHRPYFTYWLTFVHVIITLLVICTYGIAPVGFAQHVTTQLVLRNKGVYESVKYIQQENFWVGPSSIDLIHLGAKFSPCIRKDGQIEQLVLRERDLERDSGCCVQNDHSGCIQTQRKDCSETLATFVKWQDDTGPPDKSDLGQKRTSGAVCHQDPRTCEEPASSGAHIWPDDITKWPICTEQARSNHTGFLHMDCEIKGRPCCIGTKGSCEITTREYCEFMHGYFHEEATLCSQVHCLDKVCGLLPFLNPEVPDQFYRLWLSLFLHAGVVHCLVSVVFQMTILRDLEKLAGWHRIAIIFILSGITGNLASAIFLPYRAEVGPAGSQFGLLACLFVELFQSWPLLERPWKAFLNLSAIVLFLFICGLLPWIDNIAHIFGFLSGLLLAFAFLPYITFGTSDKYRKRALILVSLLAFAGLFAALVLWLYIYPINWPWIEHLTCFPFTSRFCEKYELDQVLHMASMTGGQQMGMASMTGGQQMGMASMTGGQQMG

[2] = molecular target: T2, hiR2-FL-D535-T7 (deletion of D535) (human, UniProt Q6PJF5 1-856)
T2 construct: single amino acid deletion
T2 sequence: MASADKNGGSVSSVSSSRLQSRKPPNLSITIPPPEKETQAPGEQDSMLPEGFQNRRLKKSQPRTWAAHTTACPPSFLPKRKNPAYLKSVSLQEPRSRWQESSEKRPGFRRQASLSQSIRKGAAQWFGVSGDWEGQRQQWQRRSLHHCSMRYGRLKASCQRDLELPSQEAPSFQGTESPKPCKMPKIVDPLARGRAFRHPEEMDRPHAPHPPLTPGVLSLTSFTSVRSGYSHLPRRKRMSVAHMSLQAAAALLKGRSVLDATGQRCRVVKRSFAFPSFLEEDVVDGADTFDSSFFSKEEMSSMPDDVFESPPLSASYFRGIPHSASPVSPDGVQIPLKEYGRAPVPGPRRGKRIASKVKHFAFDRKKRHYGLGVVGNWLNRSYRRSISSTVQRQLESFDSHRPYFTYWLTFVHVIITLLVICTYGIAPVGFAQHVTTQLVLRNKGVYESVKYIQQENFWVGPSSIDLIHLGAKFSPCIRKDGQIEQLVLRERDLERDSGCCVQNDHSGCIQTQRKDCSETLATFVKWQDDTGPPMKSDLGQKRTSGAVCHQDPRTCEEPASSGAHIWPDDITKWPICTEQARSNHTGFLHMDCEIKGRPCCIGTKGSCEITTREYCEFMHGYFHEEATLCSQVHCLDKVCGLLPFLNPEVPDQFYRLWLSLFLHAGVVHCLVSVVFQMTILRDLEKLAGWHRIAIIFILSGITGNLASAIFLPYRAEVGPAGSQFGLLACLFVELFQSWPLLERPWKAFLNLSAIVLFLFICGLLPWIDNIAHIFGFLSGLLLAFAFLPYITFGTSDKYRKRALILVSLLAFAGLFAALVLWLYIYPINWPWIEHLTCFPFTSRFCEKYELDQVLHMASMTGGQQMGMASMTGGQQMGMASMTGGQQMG

[3] = molecular target: T3, hiR2-FL-K536-T7 (deletion of K536) (human, UniProt Q6PJF5 1-856)
T3 construct: single amino acid deletion
T3 sequence: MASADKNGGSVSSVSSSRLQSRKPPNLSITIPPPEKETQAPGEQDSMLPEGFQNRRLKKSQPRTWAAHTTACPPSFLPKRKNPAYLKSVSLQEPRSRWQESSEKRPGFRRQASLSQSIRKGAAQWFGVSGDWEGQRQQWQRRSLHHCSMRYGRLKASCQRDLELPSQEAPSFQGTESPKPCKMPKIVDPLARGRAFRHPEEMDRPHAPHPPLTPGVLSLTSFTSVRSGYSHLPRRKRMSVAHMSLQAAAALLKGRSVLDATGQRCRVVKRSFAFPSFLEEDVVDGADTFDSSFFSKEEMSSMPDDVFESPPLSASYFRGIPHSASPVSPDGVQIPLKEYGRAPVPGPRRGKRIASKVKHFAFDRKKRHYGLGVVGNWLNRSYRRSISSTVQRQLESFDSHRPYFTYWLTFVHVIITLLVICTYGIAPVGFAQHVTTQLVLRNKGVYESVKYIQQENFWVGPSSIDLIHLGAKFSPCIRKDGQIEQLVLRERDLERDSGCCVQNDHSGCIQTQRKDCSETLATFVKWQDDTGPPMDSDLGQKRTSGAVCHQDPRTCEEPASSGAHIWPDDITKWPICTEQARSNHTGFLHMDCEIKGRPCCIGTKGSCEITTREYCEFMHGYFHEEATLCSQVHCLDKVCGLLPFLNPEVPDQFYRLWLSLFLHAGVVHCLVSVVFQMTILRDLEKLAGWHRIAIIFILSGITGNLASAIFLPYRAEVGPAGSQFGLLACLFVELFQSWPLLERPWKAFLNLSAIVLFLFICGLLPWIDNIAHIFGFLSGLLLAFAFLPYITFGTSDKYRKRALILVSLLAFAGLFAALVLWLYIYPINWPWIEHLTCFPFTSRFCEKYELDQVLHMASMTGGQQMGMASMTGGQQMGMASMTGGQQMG

Measured: binding result

B1: antibody 16 (antibody, V domains shown)
VH: QVTLKESGPGILQPSQTLSLTCSFSGFSLSTFALGVGWIRQPSGRGLEWLAHIWWDDDKYYNPALKSRLTISKDTSKNHVFLKIANVDTADTATYYCARITTYYYGMDYWGQGTSVTVSS
VL: DIVLSQSPATLSVTPGDSVSLFCRASQSIGNHLHWYQQESHASPRLLIKYASQSISGIPSRFSGSGSGTDFTLSINSVETEDFGMYFCQQSYNWPLTFGAGTKLELK
notes: mouse IgG, kappa light chain; also called clone #16; purified antibody 16
no binding (tested: 3 µg/ml): [1] | [2] | [3]

B2: antibody 3 (antibody, V domains shown)
VH: QVTLKESGPGILQPSQTLSLTCSFSGFSLTTFAMGIGWVRQPSGKGLEWLAHIWWDGEKYNNPVLKSRLTISKDTSKNQVFLRIANVDTPDTATYYCARISSIYYIIDNWGQGTSVTVSS
VL: DIVLTQSPATLSVTPGHSVSLSCRASQSISNNLHWYQKKSHESPRLLIKYVSQSISGIPSRFSGSGSGTDFTLSINSVETEDFGMYFCQQSYNWPLTFGAGTKLELK
notes: mouse IgG, kappa light chain; also called clone #3; purified antibody 3
no binding (tested: 3 µg/ml): [1] | [2] | [3]

B3: antibody 5 (antibody, V domains shown)
VH: QVTLKESGPGILQPSQTLSLTCSFSGFSLSTFGMGVGWIRQPSGKGLEWLAHIWWDDEKYYNSALKSRLTISKATSKNQAFLKIANVDTADTATYYCARISNYGSNYWYFNVWGTGTTVTVSS
VL: QVVLTQSPALMSASPGEKVTMTCSAGSSVSCMYWYQQKPGSSPRVLIYDTSNLASGVPARFTGSGSGTSYSLTISRMEAEDAASYYCQQWNSYPLTFGAGTKLELK
notes: mouse IgG, kappa light chain; also called clone #5; purified antibody 5
no binding (tested: 3 µg/ml): [1] | [2] | [3]

B4: antibody 43 (antibody, V domains shown)
VH: QVALKESGPGILQPSQTLSLTCSFSGFSLSTFGMGVGWIRQSSGKGLEWLANIWWDDDKYYNPALKSRLTISKDASKNQAFLKIANVDTADTATYYCARIGNYGSNYWYFDVWGTGTTVTVSS
VL: QIVLTQSPAIMSASPGERVTMTCSANSRISYMYWYQQKPGSSPRLLIYDTSNLASGVPVRFSGSGSGTSYSLTISRMEAEDAATYNCQQWSSYPLTFGAGTKLELK
notes: mouse IgG, kappa light chain; also called clone #43; purified antibody 43
no binding (tested: 3 µg/ml): [1] | [2] | [3]

B5: antibody 44 (antibody, V domains shown)
VH: QVTLKESGPGILQPSQTLSLTCSFSGFSLSTFGMGVGWIRQPSEKGLEWLAHIWWDDDKYYNPALKSRLTISKDTSKNQIFLKITNVDTAETATYYCSRIGNYGSNYWYFDVWGTGTTVTVSS
VL: QIVLTQSPAVMSASPGEKVTMTCTASSSVYYMYWYQQTPGSSPRLLIYDTSNLASGVPVRFSGSGSGTSYSLTISRMEAEDAATYYCQQWNTYPLTFGAGTKLELK
notes: mouse IgG, kappa light chain; also called clone #44; purified antibody 44
no binding (tested: 3 µg/ml): [1] | [2] | [3]

B6: antibody 42 (antibody, V domains shown)
VH: QVTLKESGPGILQPSQTLSLTCSLSGFSLSTFGRGVGWIRQPSGKGLEWLAHIWWDDEKYYNPALKSRLTISKDTSKNQVFLRIANVDTADTATYYCARIQNYGSNYWYFDVWGTGTTVTVSS
VL: LIVLTQSPAIMSASPGEKVTMTCGATSRISYMFWYQQKPGSSPRVLIYDTSNLASGVPVRFSGSGSGTSYSLTISRVEAEDVATYYCQQWNSYPLTFGAGTKLELK
notes: mouse IgG, kappa light chain; also called clone #42; purified antibody 42
no binding (tested: 3 µg/ml): [1] | [2] | [3]

B7: antibody 22 (antibody, V domains shown)
VH: QVTLKESGPGILQPSQTLSLTCSFSGFSLSTFGMGVGWIRQPSGKGLEWLAHIWWDDEKYYNSALKSRLTISKATSKNQVFLKIANVDTADTATYYCARISNYGSNYWYFNVWGTGTTVTVSS
VL: QVVLTQSPALMSASPGEKVTMTCSAGSSVSYMYWYQQKPGSSPRVLIYDTSNLASGVPARFTGSGSGTSYSLTISRMEAEDAATYYCQQWNSYPLTFGAGTKLELK
notes: mouse IgG, kappa light chain; also called clone #22; purified antibody 22
no binding (tested: 3 µg/ml): [1] | [2] | [3]

B8: antibody 34 (antibody, V domains shown)
VH: QVTLKESGPGILQPSQTLSLTCSFSGFSLSTFSLGVGWIRQSSGKGLEWLAHIWWDDEKYYNPALKSRLTISKDTSKNQVFLKIANVDAADTATYYCARAYYSKSYYALDYWGQGTSVTVSS
VL: DIQMTQSPSSLSASLGERVSLTCRASQEISGYLSWLQQKPDGTIKRLIYAASTLDSGVPKRFSGSRSGSDYSLAISSLESEDFADYYCLQYANFPFTFGSGTKLEIK
notes: mouse IgG, kappa light chain; also called clone #34; purified antibody 34
no binding (tested: 3 µg/ml): [1] | [2] | [3]
